In patent publication US20190375786A1, “STABLE PEPTIDES AND METHODS OF USE THEREOF” (Fred Hutchinson Cancer Research Center, priority 2016, published 2019):

Key:
trypsin = trypsin (Sus scrofa, UniProt P00761); test: Trypsin digestion resistance of soluble peptide, RP-HPLC; type: in vitro ADME, porcine; design: purchased Sigma Aldrich 6567; conditions: 500 U/ml trypsin, 30 minutes at 37.5° C.; HPLC peak vs untreated peptide
How it was run: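 12.5 μg soluble peptide digested with 500 U/ml porcine trypsin in PBS, 30 min at 37.5° C; quenched with soybean trypsin inhibitor, with or without 10 mM DTT reduction afterwards. Intact peptide assessed by C-18 RP-HPLC, 5-45% acetonitrile/0.1% TFA gradient over 10 min.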

[1] = Resistance to elevated temperature, HPLC; type: physicochemical; conditions: HPLC peak vs untreated peptide; for Resistance to Temperature (75° C.): 75° C. for one hour; for Resistance to Temperature (100° C.): 100° C. for one hour
How it was run: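 Peptides were incubated at room temperature, 70° C or 100° C for one hour in ddH2O; another protocol used 70° C, 75° C or 100° C for one hour in 0.5 mM PBS, then pelleting and analysis of the supernatant. Remaining peptide was measured by C-18 RP-HPLC, 5–45% acetonitrile/0.1% TFA over 10 min.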

[2] = Resistance to reduction by DTT, RP-HPLC; type: physicochemical; conditions: 10 mM DTT in PBS, room temperature, 30 minutes; HPLC peak vs untreated peptide
Experimental: Peptides were first suspended in 500 ul of ddH2O to a stock concentration of 2 mg/ml. Reactions were prepared by adding 12.5 ug of peptide from the stock solution to a 10 mM solution of DTT in PBS and allowed to incubate at room temperature for 30 minutes. Other reactions were prepared with 12.5 μg peptide with or without 500 U/ml pepsin in simulated gastric fluid (SGF; pH 1.05; […] sodium chloride in 0.7% (v/v) hydrochloric acid) and were incubated for 30 minutes at 37.5° C. Some reactions were quenched with a final concentration of 100 mM Tris base and 10 mM dithiothreitol (DTT). Some reactions were performed in all of the above components, including simulated gastric fluid, pepsin, Tris, and DTT (referred to as SPTD). Reversed phase HPLC (RP-HPLC) was run on samples using an Agilent 1260 HPLC equipped with a C-18 Poroshell 120B column. Sample were analyzed by a gradient method with a mobile phase of Solvent A (water with 0.1% TFA) and Solvent B (acetonitrile with 0.1% TFA). Solvent B was ramped up from 5%-45% of the mobile phase over a period of 10 minutes. Peptides were detected at an absorbance of 214 nm and 280 nm.
Peptides were first suspended in 500 μl of ddH2O to a stock concentration of 2 mg/ml. Reactions were prepared by adding 12.5 μg of peptide from the stock solution to a 10 mM solution of DTT in PBS and allowed to incubate at room temperature for 30 minutes. Other reactions were prepared with 12.5 μg peptide and 500 U/ml trypsin in 25 mM Tris/75 mM NaCl buffer (pH 7.0) and incubated for 30 minutes at 37.5° C. These reactions were then quenched with 5 μg of soybean trypsin inhibitor (I) and, in some cases, 10 mM dithiothreitol (DTT). Reversed phase HPLC (RP-HPLC) was run on samples using an Agilent 1260 HPLC equipped with a C-18 Poroshell 120B column. Sample were analyzed by a gradient method with a mobile phase of Solvent A (water with 0.1% TFA) and Solvent B (acetonitrile with 0.1% TFA). Solvent B was ramped up from 5%-45% of the mobile phase over a period of 10 minutes. For testing pepsin digestion resistance, reactions were prepared with 12.5 μg peptide with or without 500 U/ml pepsin in simulated gastric fluid (SGF; pH 1.05; […] sodium chloride in 0.7% (v/v) hydrochloric acid) and were incubated for 30 minutes at 37.5° C. For testing temperature resistance, peptides were incubated at 70° C., 75° C., or 100° C. for one hour in 0.5 mM PBS, pelleted, and then the supernatant was analyzed by HPLC.
This example illustrates peptide stability in biological conditions including in the presence of reducing agents, proteases, oxidative conditions, acidic conditions, and simulated gastric fluids. […] Various peptides were suspended in 500 μl of ddH2O at a stock concentration of 2 mg/ml. This was then diluted in accord with the reaction conditions to prevent adverse buffering effects. Reactions were prepared with 12.5 μg peptide dissolved in solution and, in some samples, additionally suspended in a 10 mM solution of DTT, simulated gastric fluid (pH 1.05; […] sodium chloride in 0.7% (v/v) hydrochloric acid), 500 U pepsin (5000 U/ml pepsin), 50 U trypsin (500 U/ml trypsin) with 1 mg/ml inhibitor in PBS, or a combination of any of these conditions. All protease reactions were incubated for 30 min at room temperature and then quenched. Pepsin reactions were quenched by adding Tris base to a final concentration of 0.075 M. Trypsin reactions were quenched by adding excess soybean trypsin inhibitor. RP-HPLC was then run on samples using an Agilent 1260 HPLC equipped with a C-18 Poroshell 120B column. Sample were analyzed by a gradient method with a mobile phase of Solvent A (water with 0.1% TFA) and Solvent B (acetonitrile with 0.1% TFA). Solvent B was ramped up from 5%-45% of the mobile phase over a period of 10 minutes.
FIG. 18 illustrates high performance liquid chromatograph (HPLC) traces of peptides in non-reducing (NR) conditions (solid trace) or in 10 mM DTT reducing (R) conditions (dashed trace). […]

pepsin = pepsin (Sus scrofa, UniProt P00791); test: Pepsin digestion resistance in simulated gastric fluid, RP-HPLC; type: in vitro ADME, porcine; design: purchased Sigma Aldrich P7012; conditions: 500 U/ml pepsin in SGF pH 1.05, 30 minutes at 37.5° C.; HPLC peak vs untreated peptide
How it was run: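 Peptide (12.5 μg) incubated 30 min at 37.5 °C with or without 500 U/ml pepsin in simulated gastric fluid (pH 1.05; 2% NaCl in 0.7% HCl); some reactions quenched with 100 mM Tris and 10 mM DTT. Intact peptide followed by C-18 RP-HPLC (5–45% acetonitrile/0.1% TFA over 10 min) at 214 and 280 nm.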

Sequence of pepsin (P00791 60-385): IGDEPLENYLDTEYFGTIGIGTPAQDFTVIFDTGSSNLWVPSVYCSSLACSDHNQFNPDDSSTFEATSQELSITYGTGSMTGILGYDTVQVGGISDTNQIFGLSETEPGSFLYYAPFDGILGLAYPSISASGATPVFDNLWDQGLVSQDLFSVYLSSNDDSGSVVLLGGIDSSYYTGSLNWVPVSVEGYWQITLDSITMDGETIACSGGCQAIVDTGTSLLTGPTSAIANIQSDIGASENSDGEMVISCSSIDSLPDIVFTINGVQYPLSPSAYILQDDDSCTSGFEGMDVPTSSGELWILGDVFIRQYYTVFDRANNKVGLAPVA
Sequence of trypsin (P00761 9-231): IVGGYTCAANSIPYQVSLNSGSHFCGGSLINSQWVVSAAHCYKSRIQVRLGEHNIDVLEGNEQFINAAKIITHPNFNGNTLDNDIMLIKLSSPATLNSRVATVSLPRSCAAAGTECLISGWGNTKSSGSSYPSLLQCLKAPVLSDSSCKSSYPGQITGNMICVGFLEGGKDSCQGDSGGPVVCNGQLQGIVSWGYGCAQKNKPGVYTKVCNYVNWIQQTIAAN

Row | Substance | Resistance to Trypsin (500 U/ml) (trypsin) | Resistance to Temperature (75° C.) [1] | Resistance to Temperature (100° C.) [1] | Resistance to DTT Reduction (10 mM) [2] | Resistance to Pepsin (500 U/ml) (pepsin)
1 | 49 (GSSFGLCRLRRGFCARGRCRFPSIPIGRCSRFVQCCRRVW) [compound 49] | Low (A peptide classified as low indicates that the majority (over 75%) of the HPLC peak of the treated peptide disappeared as compared to the HPLC peak of the untreated peptide) | High (A peptide classified as high indicates that the majority (at least 75%) of the HPLC peak of the treated peptide is still present as compared to the HPLC peak of the untreated peptide) | Low (A peptide classified as low indicates that the majority (over 75%) of the HPLC peak of the treated peptide disappeared as compared to the HPLC peak of the untreated peptide) | Low (A peptide classified as low indicates that the majority (over 75%) of the HPLC peak of the treated peptide disappeared as compared to the HPLC peak of the untreated peptide) | High (A peptide classified as high indicates that the majority (at least 75%) of the HPLC peak of the treated peptide is still present as compared to the HPLC peak of the untreated peptide)
2 | 14 (GSSDYCSNDFCFFSCRRDRCARGDCENGKCVCKNCHLN) [compound 14] | Low (A peptide classified as low indicates that the majority (over 75%) of the HPLC peak of the treated peptide disappeared as compared to the HPLC peak of the untreated peptide) | High (A peptide classified as high indicates that the majority (at least 75%) of the HPLC peak of the treated peptide is still present as compared to the HPLC peak of the untreated peptide) | High (A peptide classified as high indicates that the majority (at least 75%) of the HPLC peak of the treated peptide is still present as compared to the HPLC peak of the untreated peptide) | Low (A peptide classified as low indicates that the majority (over 75%) of the HPLC peak of the treated peptide disappeared as compared to the HPLC peak of the untreated peptide) | Moderate (A peptide classified as medium indicates that about half (between 25% and 75%) of the HPLC peak of the treated peptide disappeared as compared to the HPLC peak of the untreated peptide)
3 | 20 (GSGHACYRNCWREGNDEETCKERC) [compound 20] | High (A peptide classified as high indicates that the majority (at least 75%) of the HPLC peak of the treated peptide is still present as compared to the HPLC peak of the untreated peptide) | High (A peptide classified as high indicates that the majority (at least 75%) of the HPLC peak of the treated peptide is still present as compared to the HPLC peak of the untreated peptide) | Moderate (A peptide classified as medium indicates that about half (between 25% and 75%) of the HPLC peak of the treated peptide disappeared as compared to the HPLC peak of the untreated peptide) | Low (A peptide classified as low indicates that the majority (over 75%) of the HPLC peak of the treated peptide disappeared as compared to the HPLC peak of the untreated peptide) | High (A peptide classified as high indicates that the majority (at least 75%) of the HPLC peak of the treated peptide is still present as compared to the HPLC peak of the untreated peptide)
4 | 34 (GSGCFGYKCDYYKGCCSGYVCSPTWKWCVRPGPGR) [compound 34] | Low (A peptide classified as low indicates that the majority (over 75%) of the HPLC peak of the treated peptide disappeared as compared to the HPLC peak of the untreated peptide) | High (A peptide classified as high indicates that the majority (at least 75%) of the HPLC peak of the treated peptide is still present as compared to the HPLC peak of the untreated peptide) | Low (A peptide classified as low indicates that the majority (over 75%) of the HPLC peak of the treated peptide disappeared as compared to the HPLC peak of the untreated peptide) | Low (A peptide classified as low indicates that the majority (over 75%) of the HPLC peak of the treated peptide disappeared as compared to the HPLC peak of the untreated peptide) | Low (A peptide classified as low indicates that the majority (over 75%) of the HPLC peak of the treated peptide disappeared as compared to the HPLC peak of the untreated peptide)
5 | 13 (GSAEIIRCSGTRECYAPCQKLTGCLNAKCMNKACKCYGCV) [compound 13] | Low (A peptide classified as low indicates that the majority (over 75%) of the HPLC peak of the treated peptide disappeared as compared to the HPLC peak of the untreated peptide) | High (A peptide classified as high indicates that the majority (at least 75%) of the HPLC peak of the treated peptide is still present as compared to the HPLC peak of the untreated peptide) | High (A peptide classified as high indicates that the majority (at least 75%) of the HPLC peak of the treated peptide is still present as compared to the HPLC peak of the untreated peptide) | Low (A peptide classified as low indicates that the majority (over 75%) of the HPLC peak of the treated peptide disappeared as compared to the HPLC peak of the untreated peptide) | High (A peptide classified as high indicates that the majority (at least 75%) of the HPLC peak of the treated peptide is still present as compared to the HPLC peak of the untreated peptide)
6 | 52 (GSEGDCPISEAIKCVEKCKEKVEVCEPGVCKCSG) [compound 52] | Low (A peptide classified as low indicates that the majority (over 75%) of the HPLC peak of the treated peptide disappeared as compared to the HPLC peak of the untreated peptide) | High (A peptide classified as high indicates that the majority (at least 75%) of the HPLC peak of the treated peptide is still present as compared to the HPLC peak of the untreated peptide) | High (A peptide classified as high indicates that the majority (at least 75%) of the HPLC peak of the treated peptide is still present as compared to the HPLC peak of the untreated peptide) | Low (A peptide classified as low indicates that the majority (over 75%) of the HPLC peak of the treated peptide disappeared as compared to the HPLC peak of the untreated peptide) | High (A peptide classified as high indicates that the majority (at least 75%) of the HPLC peak of the treated peptide is still present as compared to the HPLC peak of the untreated peptide)
